Experimental data from patent publication US20220307159.

Key:
LIN28A = target: T1, LIN28A (UniProt Q9H9Z2); assay: pulldown; details: RIP-chip microarray, TALON beads, 4 C
T1 sequence: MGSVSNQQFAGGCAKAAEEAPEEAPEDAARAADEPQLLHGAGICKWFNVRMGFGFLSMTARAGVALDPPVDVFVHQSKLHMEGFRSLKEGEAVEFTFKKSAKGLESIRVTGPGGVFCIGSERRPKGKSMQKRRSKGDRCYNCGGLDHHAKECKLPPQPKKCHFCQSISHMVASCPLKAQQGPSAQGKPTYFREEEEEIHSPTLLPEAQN

[1] = target: eIF3 complex (detected via eIF3b) (Homo sapiens) (UniProt Q14152+P55884+Q99613+O15371+P60228+O00303+O75821+O15372+Q13347+O75822+Q9UBQ5+Q9Y262+Q7L2H7); assay: pulldown; details: RIP-chip co-IP with anti-eIF3b, 4 C

pre-hsa-mir-940
binding signal (Cy5 intensity (rank 6)) (LIN28A): 7.5

HIV_2014_Siegfried_nucs_1_753_2_Multi (HIV-1 gag IRES)
binding signal (top % (rank 568)) [1]: 6.58

HIV_2014_Siegfried_nucs_1_753_9 (HIV-1 gag IRES)
binding signal (top % (rank 17)) [1]: 0.2

hsa-mir-532
binding signal (Cy5 intensity (rank 10)) (LIN28A): 7.39
